Source: patent US20140274782A1, “AFFINITY REAGENTS AND METHODS FOR DETECTION, PURIFICATION, AND PROTEOMIC ANALYSIS OF METHYLATED PROTEINS” (The Board of Trustees of the Leland Stanford Junior …, priority 2013, published 2014)

T1: G9a and GLP (Homo sapiens, UniProt Q96KQ7+Q9H9B1)
T1 sequence (Q96KQ7 2-1210 limits assumed): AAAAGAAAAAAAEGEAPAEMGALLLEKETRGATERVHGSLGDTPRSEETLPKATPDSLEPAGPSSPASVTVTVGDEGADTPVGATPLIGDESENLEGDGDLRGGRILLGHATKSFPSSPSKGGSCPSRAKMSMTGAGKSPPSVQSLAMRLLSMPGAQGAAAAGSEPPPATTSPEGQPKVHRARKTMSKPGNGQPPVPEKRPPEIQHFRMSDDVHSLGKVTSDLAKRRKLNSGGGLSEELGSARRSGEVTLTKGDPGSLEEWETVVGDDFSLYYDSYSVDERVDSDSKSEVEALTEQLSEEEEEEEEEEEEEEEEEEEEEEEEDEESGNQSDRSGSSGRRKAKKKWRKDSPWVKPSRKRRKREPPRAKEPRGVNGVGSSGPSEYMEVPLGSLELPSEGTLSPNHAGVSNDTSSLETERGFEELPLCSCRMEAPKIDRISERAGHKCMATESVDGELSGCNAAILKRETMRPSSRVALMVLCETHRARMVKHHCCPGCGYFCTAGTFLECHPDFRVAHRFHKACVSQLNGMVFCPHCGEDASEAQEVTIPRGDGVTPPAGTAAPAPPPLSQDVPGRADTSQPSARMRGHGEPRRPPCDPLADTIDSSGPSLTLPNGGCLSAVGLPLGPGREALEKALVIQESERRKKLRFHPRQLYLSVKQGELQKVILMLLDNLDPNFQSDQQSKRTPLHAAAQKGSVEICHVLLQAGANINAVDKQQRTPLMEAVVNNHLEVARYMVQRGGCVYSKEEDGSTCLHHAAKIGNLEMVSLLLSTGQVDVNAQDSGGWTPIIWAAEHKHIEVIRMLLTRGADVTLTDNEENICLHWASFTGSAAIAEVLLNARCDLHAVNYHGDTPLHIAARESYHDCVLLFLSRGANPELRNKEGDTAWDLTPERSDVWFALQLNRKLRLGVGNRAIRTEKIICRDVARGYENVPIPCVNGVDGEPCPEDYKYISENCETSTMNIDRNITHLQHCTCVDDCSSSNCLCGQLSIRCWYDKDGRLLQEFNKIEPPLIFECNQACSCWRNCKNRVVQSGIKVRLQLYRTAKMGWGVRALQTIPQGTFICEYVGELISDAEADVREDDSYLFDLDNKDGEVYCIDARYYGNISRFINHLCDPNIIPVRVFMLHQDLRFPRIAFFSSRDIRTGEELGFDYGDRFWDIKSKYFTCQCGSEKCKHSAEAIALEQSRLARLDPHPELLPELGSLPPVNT
T1 sequence (Q9H9B1 2-1298 limits assumed): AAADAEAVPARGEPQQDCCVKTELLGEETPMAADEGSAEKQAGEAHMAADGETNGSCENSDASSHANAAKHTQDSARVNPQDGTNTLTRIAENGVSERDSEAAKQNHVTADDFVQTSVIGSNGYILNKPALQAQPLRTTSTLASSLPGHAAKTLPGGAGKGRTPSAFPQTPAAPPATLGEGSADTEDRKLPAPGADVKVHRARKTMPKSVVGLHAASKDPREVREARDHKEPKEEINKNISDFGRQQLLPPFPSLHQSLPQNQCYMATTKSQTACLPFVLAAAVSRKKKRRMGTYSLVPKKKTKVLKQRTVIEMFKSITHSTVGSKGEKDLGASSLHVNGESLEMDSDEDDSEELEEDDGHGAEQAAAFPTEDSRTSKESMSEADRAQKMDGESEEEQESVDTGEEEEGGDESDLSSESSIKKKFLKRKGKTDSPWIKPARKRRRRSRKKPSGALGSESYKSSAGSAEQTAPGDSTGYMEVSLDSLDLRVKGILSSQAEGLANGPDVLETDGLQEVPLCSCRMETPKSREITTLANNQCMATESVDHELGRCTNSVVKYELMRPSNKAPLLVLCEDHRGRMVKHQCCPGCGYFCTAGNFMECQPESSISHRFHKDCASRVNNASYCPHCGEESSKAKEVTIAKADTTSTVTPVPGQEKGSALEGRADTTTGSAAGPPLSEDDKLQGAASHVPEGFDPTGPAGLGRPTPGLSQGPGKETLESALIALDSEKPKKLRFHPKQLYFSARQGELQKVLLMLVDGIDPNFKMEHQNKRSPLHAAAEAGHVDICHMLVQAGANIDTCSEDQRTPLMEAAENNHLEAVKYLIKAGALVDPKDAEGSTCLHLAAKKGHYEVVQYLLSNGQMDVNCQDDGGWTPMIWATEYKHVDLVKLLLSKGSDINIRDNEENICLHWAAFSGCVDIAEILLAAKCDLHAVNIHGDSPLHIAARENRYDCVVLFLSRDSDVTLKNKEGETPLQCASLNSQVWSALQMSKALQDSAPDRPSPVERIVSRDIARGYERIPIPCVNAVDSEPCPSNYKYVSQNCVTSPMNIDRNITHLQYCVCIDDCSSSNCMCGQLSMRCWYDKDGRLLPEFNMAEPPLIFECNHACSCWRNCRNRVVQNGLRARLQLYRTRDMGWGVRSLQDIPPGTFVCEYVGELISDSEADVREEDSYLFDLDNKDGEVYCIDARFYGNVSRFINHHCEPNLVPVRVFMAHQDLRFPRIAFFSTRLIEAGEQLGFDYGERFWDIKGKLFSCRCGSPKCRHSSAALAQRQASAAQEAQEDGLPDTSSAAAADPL

B1: SF3B2 (protein, UniProt Q13435 1-895, looked up)
Splicing factor 3B subunit 2: MATEHPEPPKAELQLPPPPPPGHYGAWAAQELQAKLAEIGAPIQGNREELVERLQSYTRQTGIVLNRPVLRGEDGDKAAPPPMSAQLPGIPMPPPPLGLPPLQPPPPPPPPPPGLGLGFPMAHPPNLGPPPPLRVGEPVALSEEERLKLAQQQAALLMQQEERAKQQGDHSLKEHELLEQQKRAAVLLEQERQQEIAKMGTPVPRPPQDMGQIGVRTPLGPRVAAPVGPVGPTPTVLPMGAPVPRPRGPPPPPGDENREMDDPSVGPKIPQALEKILQLKESRQEEMNSQQEEEEMETDARSSLGQSASETEEDTVSVSKKEKNRKRRNRKKKKKPQRVRGVSSESSGDREKDSTRSRGSDSPAADVEIEYVTEEPEIYEPNFIFFKRIFEAFKLTDDVKKEKEKEPEKLDKLENSAAPKKKGFEEEHKDSDDDSSDDEQEKKPEAPKLSKKKLRRMNRFTVAELKQLVARPDVVEMHDVTAQDPKLLVHLKATRNSVPVPRHWCFKRKYLQGKRGIEKPPFELPDFIKRTGIQEMREALQEKEEQKTMKSKMREKVRPKMGKIDIDYQKLHDAFFKWQTKPKLTIHGDLYYEGKEFETRLKEKKPGDLSDELRISLGMPVGPNAHKVPPPWLIAMQRYGPPPSYPNLKIPGLNSPIPESCSFGYHAGGWGKPPVDETGKPLYGDVFGTNAAEFQTKTEEEEIDRTPWGELEPSDEESSEEEEEEESDEDKPDETGFITPADSGLITPGGFSSVPAGMETPELIELRKKKIEEAMDGSETPQLFTVLPEKRTATVGGAMMGSTHIYDMSTVMSRKGPAPELQGVEVALAPEELELDPMAMTQKYEEHVREQQAQVEKEDFSDMVAEHAAKQKQKKRKAQPQDSRGGSKKYKEFKF
B2: HNRNPH2 (protein, UniProt P55795 1-449, looked up)
Heterogeneous nuclear …: MMLSTEGREGFVVKVRGLPWSCSADEVMRFFSDCKIQNGTSGIRFIYTREGRPSGEAFVELESEEEVKLALKKDRETMGHRYVEVFKSNSVEMDWVLKHTGPNSPDTANDGFVRLRGLPFGCSKEEIVQFFSGLEIVPNGMTLPVDFQGRSTGEAFVQFASQEIAEKALKKHKERIGHRYIEIFKSSRAEVRTHYDPPRKLMAMQRPGPYDRPGAGRGYNSIGRGAGFERMRRGAYGGGYGGYDDYGGYNDGYGFGSDRFGRDLNYCFSGMSDHRYGDGGSSFQSTTGHCVHMRGLPYRATENDIYNFFSPLNPMRVHIEIGPDGRVTGEADVEFATHEDAVAAMAKDKANMQHRYVELFLNSTAGTSGGAYDHSYVELFLNSTAGASGGAYGSQMMGGMGLSNQSSYGGPASQQLSGGYGGGYGGQSSMSGYDQVLQENSSDYQSNLA
B3: CNBP (protein, UniProt P62633 2-177, looked up)
CCHC-type zinc finger nucleic …: SSNECFKCGRSGHWARECPTGGGRGRGMRSRGRGGFTSDRGFQFVSSSLPDICYRCGESGHLAKDCDLQEDACYNCGRGGHIAKDCKEPKREREQCCYNCGKPGHLARDCDHADEQKCYSCGEFGHIQKDCTKVKCYRCGETGHVAINCSKTSEVNCYRCGESGHLARECTIEATA

Columns and labels:
3×MBT domain of L3MBTL1 = assay: Triple SILAC pull-down, 3xMBT/3xMBTD355N ratio (cytoplasmic, nuclear and chromatin fractions of 293T cells); type: binding, human; conditions: SILAC ratio, pull-down 3xMBT vs 3xMBTD355N; for 3xMBT/D355N UNC Heavy: experiment with UNC0638 in heavy SILAC media; for 3xMBT/D355N UNC Light: experiment with UNC0638 in light SILAC media;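 as to all read-outs here: proteins quantified with MaxQuant, requiring at least two unique peptides and quantification in both label directions, normalized to the mean of proteins from a digested loading control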
G9a and GLP = target: T1, G9a and GLP; assay: Triple SILAC pull-down after UNC0638 treatment of 293T cells, DMSO/UNC0638 ratio of protein captured by 3×MBT; type: cell-based; set-up: cells were treated for 24 hours with UNC0638 at 2.5 μM or DMSO vehicle control; endogenous in cells; host or cells: HEK 293T; conditions: for Relative to UNC0638 UNC Heavy / Relative to UNC0638 UNC Light: SILAC ratio DMSO/UNC0638 of protein pulled down with 3xMBT; for Relative to UNC0638 UNC Heavy: UNC0638 in heavy SILAC media; for Relative to UNC0638 UNC Light: UNC0638 in light SILAC media; for Relative to UNC0638 Average: average of UNC Light and UNC Heavy experiments;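 as to all read-outs here: mass spectrometry (Q-Exactive) SILAC quantitation, DMSO/UNC0638 ratio computed after subtracting 3×MBTD355N mutant pull-down background, only proteins with at least twofold 3×MBT over mutant signal considered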

Molecule	3xMBT/D355N UNC Heavy (3×MBT domain of L3MBTL1) [log base 2]	3xMBT/D355N UNC Light (3×MBT domain of L3MBTL1) [log base 2]	Relative to UNC0638 UNC Heavy (G9a and GLP) [log base 2]	Relative to UNC0638 UNC Light (G9a and GLP) [log base 2]	Relative to UNC0638 Average (G9a and GLP) [log base 2]
B1	3.89	3.33	0.17	0.33	0.25
B2	1.02	2.68	0.18	0.32	0.25
B3	1.05	1.79	0.51	0.05	0.28
